Measured values: PMC12207370, “Macrocyclic Peptide Probes for Immunomodulatory Protein CD59: Potent Modulators of Bacterial Toxin Activity and Antibody‐Dependent Cytotoxicity” (Angewandte Chemie (International Ed. in English), 2025)

Molecular target: T1, biotinylated CD59 (Homo sapiens, UniProt P13987)
T1 construct: Recombinant soluble human CD59 with an additional C-terminal cysteine residue
T1 sequence (P13987 26-102 limits assumed): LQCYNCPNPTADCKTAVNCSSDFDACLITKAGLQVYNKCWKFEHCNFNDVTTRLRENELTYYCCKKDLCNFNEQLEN
Assay: mRNA-display cyclic peptide screen against CD59-biotin, NGS abundance after 6th selection round
Conditions: for Percentage Seq I: counts normalised by total counts of sample Seq I; for Percentage Seq I / Percentage Seq II: percentage of the pool; for Percentage Seq I / Percentage Seq II / Percentage Average / Percentage of the pool, averaged across the two sequencing samples / Percentage of the pool, Seq I / Percentage of the pool, Seq II: sheet R6; for Percentage Seq II: counts normalised by total counts of sample Seq II; for Percentage Average: percentage of the pool averaged across the two sequencing samples; for Counts Seq I / Counts Seq II: raw NGS counts of peptide sequence; for Counts Seq I: sequencing sample Seq I; for Counts Seq I / Counts Seq II / Counts (raw counts for peptide sequence), Seq I / Counts (raw counts for peptide sequence), Seq II: sheet R6 (6th selection round); for Counts Seq II: sequencing sample Seq II; for Counts (raw counts for peptide sequence), Seq I: NGS sample Seq I; for Counts (raw counts for peptide sequence), Seq II: NGS sample Seq II; for Percentage of the pool, averaged across the two sequencing samples: average of Seq I and Seq II; for Percentage of the pool, Seq I: counts normalised by total counts of NGS sample Seq I; for Percentage of the pool, Seq II: counts normalised by total counts of NGS sample Seq II
In short: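 Peptide–mRNA fusions were made by in vitro translation with a customised PURE express kit. The kit lacked release factor 1 and methionine and was supplemented with […] initiator tRNA carrying N-chloroacetyl-d-tyrosine. Thioether macrocycles were formed, then enriched and amplified over iterative rounds on CD59-biotin immobilised on streptavidin beads. NGS read counts per sequence were recorded after the 6th selection round.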

Row | Sequence | Percentage Seq I | Percentage Seq II | Percentage Average | Counts Seq I | Counts Seq II | Counts (raw counts for peptide sequence), Seq I | Counts (raw counts for peptide sequence), Seq II | Percentage of the pool, averaged across the two sequencing samples | Percentage of the pool, Seq I | Percentage of the pool, Seq II
1 | FVTGNRDHTRG | 7.311% | 7.094% | 7.203% | 31986 | 3057 | – | – | – | – | –
2 | SWTWGNRSSVRG | 2.910% | 2.799% | 2.855% | 12733 | 1206 | – | – | – | – | –
3 | GRLNECHVIWS | 0.015% | 0.037% | 0.026% | 65 | 16 | – | – | – | – | –
4 | WRDRFDQCVI | – | – | – | – | – | 37 | 5 | 0.010% | 0.00846% | 0.012%
5 | VAHGSKNSQFW | 0.349% | 0.325% | 0.337% | 1526 | 140 | – | – | – | – | –
6 | CFRNRVLEITST | 0.042% | 0.032% | 0.037% | 183 | 14 | – | – | – | – | –
7 | HCWVRGSRSYT | 0.022% | 0.021% | 0.022% | 97 | 9 | – | – | – | – | –
8 | LLGSSSYVKFWY | 0.253% | 0.265% | 0.259% | 1105 | 114 | – | – | – | – | –
9 | ITRGSNIYAYG | – | – | – | – | – | 79 | 6 | 0.016% | 0.018% | 0.014%
10 | GRYNECHFITS | – | – | – | – | – | 59 | 6 | 0.014% | 0.013% | 0.014%
11 | VLCHRWHVGSHR | – | – | – | – | – | 54 | 7 | 0.014% | 0.012% | 0.016%
12 | IARGDWNHQFY | 0.514% | 0.450% | 0.482% | 2249 | 194 | – | – | – | – | –
13 | FQRGTRSTSWG | 0.054% | 0.035% | 0.045% | 238 | 15 | – | – | – | – | –
14 | SAWGNWQIQYY | 0.023% | 0.030% | 0.027% | 102 | 13 | – | – | – | – | –
15 | CFAHRITDPNTQ | 0.027% | 0.014% | 0.020% | 117 | 6 | – | – | – | – | –
16 | PFAKRVAAQGGC | – | – | – | – | – | 24 | 6 | 0.010% | 0.00549% | 0.014%
17 | CFVNRLGSAESR | – | – | – | – | – | 63 | 9 | 0.018% | 0.014% | 0.021%
18 | SAWGNRQIQYY | 7.073% | 7.046% | 7.059% | 30945 | 3036 | – | – | – | – | –
19 | CFAGRLTIDAV | 2.645% | 2.553% | 2.599% | 11574 | 1100 | – | – | – | – | –
20 | IASGSLHFVFY | 0.027% | 0.032% | 0.030% | 119 | 14 | – | – | – | – | –
21 | CYTYRSLDPQSV | – | – | – | – | – | 42 | 9 | 0.015% | 0.010% | 0.021%
22 | FVMGNRDHTRG | 0.017% | 0.023% | 0.020% | 76 | 10 | – | – | – | – | –
23 | CFSPRVTEHST | – | – | – | – | – | 62 | 8 | 0.016% | 0.014% | 0.019%

Row | Sequence | Percentage Seq I | Percentage Seq II | Percentage Average | Counts Seq I | Counts Seq II | Counts (raw counts for peptide sequence), Seq I | Counts (raw counts for peptide sequence), Seq II | Percentage of the pool, averaged across the two sequencing samples | Percentage of the pool, Seq I | Percentage of the pool, Seq II
24 | SAWGNRRIQYY | 0.034% | 0.037% | 0.035% | 148 | 16 | – | – | – | – | –
25 | WSTRTFTCRTLL | 0.395% | 0.446% | 0.420% | 1728 | 192 | – | – | – | – | –
26 | STYNDFFRVPC | 0.149% | 0.200% | 0.174% | 650 | 86 | – | – | – | – | –
27 | VARGNSNTVWG | 0.019% | 0.021% | 0.020% | 85 | 9 | – | – | – | – | –
28 | HVFGNRPFTRG | – | – | – | – | – | 73 | 5 | 0.014% | 0.017% | 0.012%
29 | EARGTKSFAYY | 0.124% | 0.100% | 0.112% | 544 | 43 | – | – | – | – | –
30 | GRLNECHVIWP | 0.317% | 0.302% | 0.310% | 1389 | 130 | – | – | – | – | –
31 | CIDVYGRMWA | 0.086% | 0.091% | 0.088% | 375 | 39 | – | – | – | – | –
32 | YVFGNRSFTRG | 0.504% | 0.524% | 0.514% | 2205 | 226 | – | – | – | – | –
33 | CFARRVNNSSL | 0.031% | 0.028% | 0.030% | 137 | 12 | – | – | – | – | –
34 | VARGSKDWRWS | – | – | – | – | – | 41 | 6 | 0.012% | 0.009% | 0.014%
35 | YGASPTSLCSGI | 0.166% | 0.186% | 0.176% | 727 | 80 | – | – | – | – | –
36 | VWGNRWTRIYW | 0.037% | 0.035% | 0.036% | 161 | 15 | – | – | – | – | –
37 | FVTGNRDHTSG | – | – | – | – | – | 60 | 4 | 0.011% | 0.014% | 0.009%
38 | HVLGNRSFTRG | 0.071% | 0.084% | 0.077% | 312 | 36 | – | – | – | – | –
39 | LWGAANYLKVIY | 0.046% | 0.023% | 0.035% | 201 | 10 | – | – | – | – | –
40 | CYGGRSFIYAWS | – | – | – | – | – | 47 | 6 | 0.012% | 0.011% | 0.014%
41 | HVFGNRSLTRG | – | – | – | – | – | 93 | 5 | 0.016% | 0.021% | 0.012%
42 | SSYRELAHLSC | 0.127% | 0.125% | 0.126% | 555 | 54 | – | – | – | – | –
43 | CFAKRLSLDAL | 0.177% | 0.176% | 0.177% | 774 | 76 | – | – | – | – | –
44 | LGGRGCFRPCSAAAAAAARTGGG | 0.050% | 0.042% | 0.046% | 220 | 18 | – | – | – | – | –
45 | LNPQGHCLLKL | – | – | – | – | – | 55 | 8 | 0.016% | 0.013% | 0.019%
46 | CFSARAIHGSL | – | – | – | – | – | 38 | 6 | 0.011% | 0.009% | 0.014%
